Laboratory results reported in patent US20220033520A1 (published 2022).

Assays:
[1] = biological target: T1, human FcRn complex (FCGRT and beta-2 microglobulin), recombinant, purified (human, UniProt P55899 24-297; P61769 21-119); experiment: -; pH7.4
[2] = biological target: T1, human FcRn complex (FCGRT and beta-2 …); experiment: ?; pH 7.4
[3] = biological target: T1, human FcRn complex (FCGRT and beta-2 …); experiment: ?; pH 7.4; remark: listed apart in the source
[4] = biological target: T1, human FcRn complex (FCGRT and beta-2 …); experiment: -; pH6
[5] = biological target: T1, human FcRn complex (FCGRT and beta-2 …); experiment: -; pH7.4; remark: listed apart in the source
[6] = biological target: T1, human FcRn complex (FCGRT and beta-2 …); experiment: ?; pH 6
[7] = biological target: T1, human FcRn complex (FCGRT and beta-2 …); experiment: ?; pH 6; remark: listed apart in the source
[8] = biological target: T1, human FcRn complex (FCGRT and beta-2 …); experiment: -; pH6; remark: listed apart in the source
[9] = biological target: T1, human FcRn complex (FCGRT and beta-2 …); experiment: -; pH7.4; remark: listed apart in the source
[10] = biological target: T1, human FcRn complex (FCGRT and beta-2 …); experiment: -; pH6; remark: listed apart in the source
[11] = biological target: T1, human FcRn complex (FCGRT and beta-2 …); experiment: ?; pH 7.4; remark: listed apart in the source
[12] = biological target: T1, human FcRn complex (FCGRT and beta-2 …); experiment: ?; pH 6; remark: listed apart in the source
[13] = biological target: T1, human FcRn complex (FCGRT and beta-2 …); experiment: -; pH7.4; remark: listed apart in the source
[14] = biological target: T1, human FcRn complex (FCGRT and beta-2 …); experiment: -; pH6; remark: listed apart in the source

T1 sequence (P55899 24-297, chain 1 of 2): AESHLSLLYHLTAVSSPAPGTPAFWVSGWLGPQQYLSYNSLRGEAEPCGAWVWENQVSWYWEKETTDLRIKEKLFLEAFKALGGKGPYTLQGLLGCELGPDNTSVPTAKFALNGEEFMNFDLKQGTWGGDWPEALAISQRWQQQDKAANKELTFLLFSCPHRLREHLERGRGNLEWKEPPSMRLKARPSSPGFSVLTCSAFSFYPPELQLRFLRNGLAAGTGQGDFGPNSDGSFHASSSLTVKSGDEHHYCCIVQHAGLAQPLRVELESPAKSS
T1 sequence (P61769 21-119, chain 2 of 2): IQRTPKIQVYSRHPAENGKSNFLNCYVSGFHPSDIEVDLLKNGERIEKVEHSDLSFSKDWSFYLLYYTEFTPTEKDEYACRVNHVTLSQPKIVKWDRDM

Row | Binder | Kd [1] [nM] | Kd [2] [nM] | Kd [3] [nM] | Kd [4] [nM] | Kd [5] [nM] | Kd [6] [nM] | Kd [7] [nM] | Kd [8] [nM] | Kd [9] [nM] | Kd [10] [nM] | Kd [11] [nM] | Kd [12] [nM] | Kd [13] [nM] | Kd [14] [nM]
1 | anti-gD antibody comprising a hIgG1 with a YQAY (Q95, M252Y/T307Q/Q311A/N434Y) Fc modification (anti-gD-hIgG1-YQAY) (antibody) Fc: PAPELLGGPSVFLFPPKPKDTLYISRTPEVTCVVVDVSHEDPEVKFNWYVDGVEVHNAKTKPREEQYNSTYRVVSVLQVLHADWLNGKEYKCKVSNKALPAPIEKTISKAKGQPREPQVYTLPPSRDELTKNQVSLTCLVKGFYPSDIAVEWESNGQPENNYKTTPPVLDSDGSFFLYSKLTVDKSRWQQGNVFSCSVMHEALHYHYTQKSLSLSPGK | 333 | 333 | 333 | 2 | 333 | 2 | 2 | 2 | 333 | 2 | – | – | – | –
2 | anti-BACE1 hIgG1 antibody, Fc modification Q95 (M252Y/T307Q/Q311A/N434Y) (antibody) Fc: PAPELLGGPSVFLFPPKPKDTLYISRTPEVTCVVVDVSHEDPEVKFNWYVDGVEVHNAKTKPREEQYNSTYRVVSVLQVLHADWLNGKEYKCKVSNKALPAPIEKTISKAKGQPREPQVYTLPPSRDELTKNQVSLTCLVKGFYPSDIAVEWESNGQPENNYKTTPPVLDSDGSFFLYSKLTVDKSRWQQGNVFSCSVMHEALHYHYTQKSLSLSPGK | – | – | – | – | – | – | – | – | – | – | 333 | 1.98 | 333 | 2
